Assay results from US20190202907A1 (180 THERAPEUTICS, published 2019).

T1: human ST2L (human, UniProt Q01638 19-328, limits assumed)
T1 construct: also called IL-1R4; IL-33Ra
T1 sequence (looked up): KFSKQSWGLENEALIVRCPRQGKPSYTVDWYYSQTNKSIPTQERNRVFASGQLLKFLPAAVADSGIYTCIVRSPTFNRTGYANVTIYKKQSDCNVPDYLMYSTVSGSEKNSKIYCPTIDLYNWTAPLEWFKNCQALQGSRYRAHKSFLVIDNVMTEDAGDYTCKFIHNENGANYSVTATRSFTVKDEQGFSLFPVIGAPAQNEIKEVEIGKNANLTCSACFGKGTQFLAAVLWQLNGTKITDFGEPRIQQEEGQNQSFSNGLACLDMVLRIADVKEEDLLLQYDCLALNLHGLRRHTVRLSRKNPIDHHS


What was measured:
[1] = biological target: cyno ST2L (cyno); assay: affinity table; method not stated
[2] = biological target: T1, human ST2L; assay: affinity table; method not stated

Binder	Kd [1] [nM]	koff [1] [s⁻¹]	kon [1] [M⁻¹ s⁻¹]	Kd [2] [nM]	koff [2] [s⁻¹]	kon [2] [M⁻¹ s⁻¹]
STLM103 (antibody, from another filing, V domains shown) VH: EVQLLESGGGLVQPGGSLRLSCAASGFTFSFYDMFWVRQAPGKGLEWVSSIRGEGGRTDYADSVKGRFTISRDNSKNTLYLQMNSLRAEDTAVYYCARDPWSTEGSFFVLDYWGQGTLVTVSS VL: EIVLTQSPATLSLSPGERATLSCRASQSVDDDLAWYQQKPGQAPRLLIYDASNRATGIPARFSGSGSGTDFTLTISSLEPEDFAVYYCQQYIGAPITFGQGTKVEIK	0.031	0.000202	6.42e+06	0.041	0.000163	3.97e+06
STLM222 (antibody, from another filing, V domains shown) VH: EVQLLESGGGLVQPGGSLRLSCAASGFTFSIYSMFWVRQAPGKGLEWVSDIGGEGGGTSYADSVKGRFTISRDNSKNTLYLQMNSLRAEDTAVYYCARDPWSTEGSFFVLDYWGQGTLVTVSS VL: EIVLTQSPATLSLSPGERATLSCRASQSVDDDLAWYQQKPGQAPRLLIYDASNRATGIPARFSGSGSGTDFTLTISSLEPEDFAVYYCQQYIGAPITFGQGTKVEIK	0.029	0.000345	1.18e+07	0.037	0.000301	8.22e+06
STLM108 (antibody, from another filing, V domains shown) VH: EVQLLESGGGLVQPGGSLRLSCAASGFTFSIYDMIWVRQAPGKGLEWVSTIKGEGGGTYYADSVKGRFTISRDNSKNTLYLQMNSLRAEDTAVYYCARDPWSTEGSFFVLDYWGQGTLVTVSS VL: EIVLTQSPATLSLSPGERATLSCRASQSVDDDLAWYQQKPGQAPRLLIYDASNRATGIPARFSGSGSGTDFTLTISSLEPEDFAVYYCQQYIGAPITFGQGTKVEIK	0.029	0.000598	2.05e+07	0.097	0.000222	2.29e+06
STLM226 (antibody, from another filing, V domains shown) VH: EVQLVQSGAEVKKPGATVKISCKVSAFNIKDDYMHWVQQAPGKGLEWMGRIDPAIGNTEYAEKFQGRVTITADTSTDTAYMELSSLRSEDTAVYYCATGDFYAMAYWGQGTLVTVSS VL: DIQMTQSPSSLSASVGDRVTITCITNTDIDDVIHWYQQKPGKAPKLLIYEGNTLRPGVPSRFSGSGSGTDFTLTISSLQPEDFATYYCLQSDNLLTFGQGTKLEIK	0.301	0.0301	1e+08	0.09	0.00193	2.16e+07
STLM228 (antibody, from another filing, V domains shown) VH: EVQLVQSGAEVKKPGATVKISCKVSAFNIKDDYMHWVQQAPGKGLEWMGRIDPAIGNTEYAEKFQGRVTITADTSTDTAYMELSSLRSEDTAVYYCATGDFYAMAYWGQGTLVTVSS VL: DIQMTQSPSTLSASVGDRVTITCITNTDIDDVIHWYQQKPGKAPKLLIYEGNTLRPGVPSRFSGSGSGTEFTLTISSLQPDDFATYYCLQSDNMLTFGQGTKLEIK	0.155	0.0155	1e+08	0.052	0.00104	2.01e+07
STLM229 (antibody, from another filing, V domains shown) VH: EVQLVQSGAEVKKPGATVKISCKVSAFNIKDDYMHWVQQAPGKGLEWMGRIDPAIGNTEYAEKFQGRVTITADTSTDTAYMELSSLRSEDTAVYYCATGDFYAMAYWGQGTLVTVSS VL: DIQMTQSPSSVSASVGDRVTITCITNTDIDDVIHWYQQKPGKAPKLLIYEGNTLRPGVPSRFSGSGSGTDFTLTISSLQPEDFATYYCLQSDNMLTFGQGTKLEIK	0.085	0.0085	1e+08	0.035	0.000445	1.29e+07
STLM227 (antibody, from another filing, V domains shown) VH: EVQLVQSGAEVKKPGATVKISCKVSAFNIKDDYMHWVQQAPGKGLEWMGRIDPAIGNTEYAEKFQGRVTITADTSTDTAYMELSSLRSEDTAVYYCATGDFYAMAYWGQGTLVTVSS VL: DIQLTQSPSFLSASVGDRVTITCITNTDIDDVIHWYQQKPGKAPKLLIYEGNTLRPGVPSRFSGSGSGTEFTLTISSLQPEDFATYYCLQSDNMLTFGQGTKLEIK	0.294	0.0294	1e+08	0.064	0.0017	2.66e+07
STLM232 (antibody, from another filing, V domains shown) VH: EVQLVQSGAEVKKPGATVKISCKVSAFNIKDDYMHWVQQAPGKGLEWMGRIDPAIGNTEYAEKFQGRVTITADTSTDTAYMELSSLRSEDTAVYYCATGDFYAMAYWGQGTLVTVSS VL: DIQMTQSPSSLSASVGDRVTITCITNTDIDDVIHWYQQKPGKAPKLLIYEGNTLRPGVPSRFSGSGSGTDFTFTISSLQPEDIATYYCLQSDNMLTFGQGTKLEIK	0.08	0.00797	1e+08	0.025	0.000449	1.78e+07
STLM230 (antibody, from another filing, V domains shown) VH: EVQLVQSGAEVKKPGATVKISCKVSAFNIKDDYMHWVQQAPGKGLEWMGRIDPAIGNTEYAEKFQGRVTITADTSTDTAYMELSSLRSEDTAVYYCATGDFYAMAYWGQGTLVTVSS VL: DIQMTQSPSSLSASVGDRVTITCITNTDIDDVIHWYQQKPGKAPKLLIYEGNTLRPGVPSRFSGSGSGTDFTLTISSLQPEDFATYYCLQSDNMLTFGQGTKLEIK	0.144	0.0073	5.06e+07	0.038	0.000426	1.11e+07
STLM231 (antibody, from another filing, V domains shown) VH: EVQLVQSGAEVKKPGATVKISCKVSAFNIKDDYMHWVQQAPGKGLEWMGRIDPAIGNTEYAEKFQGRVTITADTSTDTAYMELSSLRSEDTAVYYCATGDFYAMAYWGQGTLVTVSS VL: DIQMTQSPSSLSASVGDRVTITCITNTDIDDVIHWYQQKPGKVPKLLIYEGNTLRPGVPSRFSGSGSGTDFTLTISSLQPEDVATYYCLQSDNMLTFGQGTKLEIK	0.172	0.0143	8.27e+07	0.046	0.000913	1.97e+07

Binders with a lower Kd [1], results first:

Kd [1] [nM]	koff [1] [s⁻¹]	kon [1] [M⁻¹ s⁻¹]	Kd [2] [nM]	koff [2] [s⁻¹]	kon [2] [M⁻¹ s⁻¹]	Binder
0.022	0.00013	6.04e+06	0.035	9.61e-05	2.73e+06	STLM221 (antibody, from another filing, V domains shown) VH: EVQLLESGGGLVQPGGSLRLSCAASGFTFSIYDMFWVRQAPGKGLEWVSYIRGEGGDTNYADSVKGRFTISRDNSKNTLYLQMNSLRAEDTAVYYCARDPWSTEGSFFVLDYWGQGTLVTVSS VL: EIVLTQSPATLSLSPGERATLSCRASQSVDDDLAWYQQKPGQAPRLLIYDASNRATGIPARFSGSGSGTDFTLTISSLEPEDFAVYYCQQYIGAPITFGQGTKVEIK
0.009	0.00014	1.6e+07	0.016	9.53e-05	5.8e+06	STLM220 (antibody, from another filing, V domains shown) VH: EVQLLESGGGLVQPGGSLRLSCAASGFTFSFYDMFWVRQAPGKGLEWVSDIRGEGGGTAYADSVKGRFTISRDNSKNTLYLQMNSLRAEDTAVYYCARDPWSTEGSFFVLDYWGQGTLVTVSS VL: EIVLTQSPATLSLSPGERATLSCRASQSVDDDLAWYQQKPGQAPRLLIYDASNRATGIPARFSGSGSGTDFTLTISSLEPEDFAVYYCQQYIGAPITFGQGTKVEIK
0.022	0.00023	1.07e+07	0.027	0.000201	7.54e+06	STLM219 (antibody, from another filing, V domains shown) VH: EVQLLESGGGLVQPGGSLRLSCAASGFTFSGYDMFWVRQAPGKGLEWVSDIGGEGGSTNYADSVKGRFTISRDNSKNTLYLQMNSLRAEDTAVYYCARDPWSTEGSFFVLDYWGQGTLVTVSS VL: EIVLTQSPATLSLSPGERATLSCRASQSVDDDLAWYQQKPGQAPRLLIYDASNRATGIPARFSGSGSGTDFTLTISSLEPEDFAVYYCQQYIGAPITFGQGTKVEIK
0.004	0.000138	3.81e+07	0.017	0.000126	7.27e+06	STLM217 (antibody, from another filing, V domains shown) VH: EVQLLESGGGLVQPGGSLRLSCAASGFTFSVYDMFWVRQAPGKGLEWVSDIKGEGGETSYADSVKGRFTISRDNSKNTLYLQMNSLRAEDTAVYYCARDPWSTEGSFFVLDYWGQGTLVTVSS VL: EIVLTQSPATLSLSPGERATLSCRASQSVDDDLAWYQQKPGQAPRLLIYDASNRATGIPARFSGSGSGTDFTLTISSLEPEDFAVYYCQQYIGAPITFGQGTKVEIK
0.007	0.00055	1e+08	0.012	0.000341	2.9e+07	STLM107 (antibody, from another filing, V domains shown) VH: EVQLLESGGGLVQPGGSLRLSCAASGFTFSDYAMFWVRQAPGKGLEWVSAIEGEGGETNYADSVKGRFTISRDNSKNTLYLQMNSLRAEDTAVYYCARDPWSTEGSFFVLDYWGQGTLVTVSS VL: EIVLTQSPATLSLSPGERATLSCRASQSVDDDLAWYQQKPGQAPRLLIYDASNRATGIPARFSGSGSGTDFTLTISSLEPEDFAVYYCQQYIGAPITFGQGTKVEIK
0.018	0.000265	1.45e+07	0.023	0.000224	9.89e+06	STLM218 (antibody, from another filing, V domains shown) VH: EVQLLESGGGLVQPGGSLRLSCAASGFTFSVDSMFWVRQAPGKGLEWVSSIEGNGGATYYADSVKGRFTISRDNSKNTLYLQMNSLRAEDTAVYYCARDPWSTEGSFFVLDYWGQGTLVTVSS VL: EIVLTQSPATLSLSPGERATLSCRASQSVDDDLAWYQQKPGQAPRLLIYDASNRATGIPARFSGSGSGTDFTLTISSLEPEDFAVYYCQQYIGAPITFGQGTKVEIK
